Measurements as given in paper PMC7145715.

Molecular target: KDM4B (1-350) (UniProt O94953 1-350)
Experiment: EMSA

Sequence of KDM4B (1-350) (O94953 1-350): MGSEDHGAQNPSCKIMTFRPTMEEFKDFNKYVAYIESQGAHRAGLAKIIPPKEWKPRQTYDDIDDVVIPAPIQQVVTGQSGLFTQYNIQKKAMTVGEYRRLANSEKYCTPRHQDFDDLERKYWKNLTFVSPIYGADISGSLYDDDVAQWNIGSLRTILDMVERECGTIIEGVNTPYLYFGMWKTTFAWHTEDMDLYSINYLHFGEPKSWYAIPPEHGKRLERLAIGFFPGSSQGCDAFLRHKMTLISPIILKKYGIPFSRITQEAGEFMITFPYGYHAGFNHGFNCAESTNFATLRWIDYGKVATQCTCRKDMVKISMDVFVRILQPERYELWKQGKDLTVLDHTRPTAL

B1: WT-4BRBS (AR-A2) (ssRNA)
RNA: CUCAUCUCCAGUCUGAGUAAUAAUGCUUAUAGUAUUAUGG
binding result: binds
